Reference: PMC11912937

Molecular target: FACT complex (SPT16/SSRP1), full length, untreated (human) (UniProt Q9Y5B9)
Assay: SEC; analytical SEC of CCAN with different amounts of FACT; peak fractions on SDS-PAGE with TCE, tryptophan fluorescence of the bands normalised to the number of tryptophans and to SPT16

FACT complex (SPT16/SSRP1), full length, untreated (human), sequence (Q9Y5B9 whole entry, chain 1 of 2): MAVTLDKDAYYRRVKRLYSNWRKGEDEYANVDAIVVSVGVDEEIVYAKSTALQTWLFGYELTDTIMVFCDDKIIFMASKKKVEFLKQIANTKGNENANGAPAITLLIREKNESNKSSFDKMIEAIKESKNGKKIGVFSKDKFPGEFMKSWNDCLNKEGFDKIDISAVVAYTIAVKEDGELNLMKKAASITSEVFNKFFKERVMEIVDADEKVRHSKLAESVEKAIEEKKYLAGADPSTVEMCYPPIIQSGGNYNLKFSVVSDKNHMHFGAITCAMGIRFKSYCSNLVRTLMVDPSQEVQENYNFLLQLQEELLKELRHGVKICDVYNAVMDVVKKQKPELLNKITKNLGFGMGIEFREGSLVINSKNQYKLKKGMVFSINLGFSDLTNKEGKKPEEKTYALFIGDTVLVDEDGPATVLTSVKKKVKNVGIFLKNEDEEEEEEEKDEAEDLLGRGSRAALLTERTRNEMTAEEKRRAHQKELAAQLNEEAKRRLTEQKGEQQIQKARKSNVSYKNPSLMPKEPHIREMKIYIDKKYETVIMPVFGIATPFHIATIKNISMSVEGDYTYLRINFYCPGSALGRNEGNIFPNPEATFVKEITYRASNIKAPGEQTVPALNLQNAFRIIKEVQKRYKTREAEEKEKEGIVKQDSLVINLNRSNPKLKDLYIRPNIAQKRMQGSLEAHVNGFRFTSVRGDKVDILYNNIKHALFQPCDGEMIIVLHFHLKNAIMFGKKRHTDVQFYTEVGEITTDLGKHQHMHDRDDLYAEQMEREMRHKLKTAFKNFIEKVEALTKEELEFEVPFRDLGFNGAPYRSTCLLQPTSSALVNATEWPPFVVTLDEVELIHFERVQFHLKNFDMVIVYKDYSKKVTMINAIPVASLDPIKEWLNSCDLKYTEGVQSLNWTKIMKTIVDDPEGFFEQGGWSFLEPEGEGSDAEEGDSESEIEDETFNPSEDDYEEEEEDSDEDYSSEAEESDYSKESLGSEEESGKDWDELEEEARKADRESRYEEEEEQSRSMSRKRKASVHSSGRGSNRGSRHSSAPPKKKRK
FACT complex (SPT16/SSRP1), full length, untreated (human), sequence (Q08945 whole entry, chain 2 of 2, further chain): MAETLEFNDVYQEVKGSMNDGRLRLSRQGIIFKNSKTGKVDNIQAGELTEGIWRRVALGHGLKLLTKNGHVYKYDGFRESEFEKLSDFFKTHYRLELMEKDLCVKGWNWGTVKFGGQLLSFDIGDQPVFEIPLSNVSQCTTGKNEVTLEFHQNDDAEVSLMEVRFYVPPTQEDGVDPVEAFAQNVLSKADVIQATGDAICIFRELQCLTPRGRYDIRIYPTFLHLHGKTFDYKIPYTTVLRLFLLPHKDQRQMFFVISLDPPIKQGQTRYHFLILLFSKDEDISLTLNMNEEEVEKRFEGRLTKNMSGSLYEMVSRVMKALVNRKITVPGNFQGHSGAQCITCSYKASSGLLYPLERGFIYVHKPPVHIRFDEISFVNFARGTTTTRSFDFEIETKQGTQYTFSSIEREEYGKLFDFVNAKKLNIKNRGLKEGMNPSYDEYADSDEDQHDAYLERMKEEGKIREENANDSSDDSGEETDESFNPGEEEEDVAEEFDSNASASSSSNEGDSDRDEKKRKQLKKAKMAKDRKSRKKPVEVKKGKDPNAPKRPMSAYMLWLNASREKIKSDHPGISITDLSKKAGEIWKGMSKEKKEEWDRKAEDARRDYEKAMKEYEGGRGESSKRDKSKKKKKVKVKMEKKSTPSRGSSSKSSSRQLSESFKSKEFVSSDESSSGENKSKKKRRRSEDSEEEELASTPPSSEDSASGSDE

“CCAN, 16-subunit constitutive centromere-associated network reconstituted with CENP-C^2–545 (from UniProt Q03188 2-545; Q9H3R5 1-247; Q92674 1-756; Q9BS16 1-269; Q9NSP4 1-180; Q8N0S6 1-344; Q96H22 1-339; Q9BU64 1-300; Q6IPU0 1-288; Q7L2Z9 1-268; Q71F23 1-418; Q13352 1-177; Q96BT3 1-561; Q5EE01 1-88; Q8N2Z9 1-138; A8MT69 1-81) (complex)” was tested, and the stoichiometry N (FACT per CCAN) was 1.
